Measurements taken from article PMC10221034 (2023).

B1: wild-type rTpiA (recombinant Streptococcus pneumoniae D39 triosephosphate isomerase) [Streptococcus pneumoniae D39] / human plasma plasminogen [human] (parent complex)
chain 1: SRKPFIAGNWKMNKNPEEAKAFVEAVASKLPSSDLVEAGIAAPALDLTTVLAVAKGSNLKVAAQNCYFENAGAFTGETSPQVLKEIGTDYVVIGHSERRDYFHETDEDINKKAKAIFANGMLPIICCGESLETYEAGKAAEFVGAQVSAALAGLTAEQVAASVIAYEPIWAIGTGKSASQDDAQKMCKVVRDVVAADFGQEVADKVRVQYGGSVKPENVASYMACPDVDGALVGGASLEAESFLALLDFVK
chain 2: EPLDDYVNTQGASLFSVTKKQLGAGSIEECAAKCEEDEEFTCRAFQYHSKEQQCVIMAENRKSSIIIRMRDVVLFEKKVYLSECKTGNGKNYRGTMSKTKNGITCQKWSSTSPHRPRFSPATHPSEGLEENYCRNPDNDPQGPWCYTTDPEKRYDYCDILECEEECMHCSGENYDGKISKTMSGLECQAWDSQSPHAHGYIPSKFPNKNLKKNYCRNPDRELRPWCFTTDPNKRWELCDIPRCTTPPPSSGPTYQCLKGTGENYRGNVAVTVSGHTCQHWSAQTPHTHNRTPENFPCKNLDENYCRNPDGKRAPWCHTTNSQVRWEYCKIPSCDSSPVSTEQLAPTAPPELTPVVQDCYHGDGQSYRGTSSTTTTGKKCQSWSSMTPHRHQKTPENYPNAGLTMNYCRNPDADKGPWCFTTDPSVRWEYCNLKKCSGTEASVVAPPPVVLLPDVETPSEEDCMFGNGKGYRGKRATTVTGTPCQDWAAQEPHRHSIFTPETNPRAGLEKNYCRNPDGDVGGPWCYTTNPRKLYDYCDVPQCAAPSFDCGKPQVEPKKCPGRVVGGCVAHPHSWPWQVSLRTRFGMHFCGGTLISPEWVLTAAHCLEKSPRPSSYKVILGAHQEVNLEPHVQEIEVSRLFLEPTRKDIALLKLSSPAVITDKVIPACLPSPNYVVADRTECFITGWGETQGTFGAGLLKEAQLPVIENKVCNRYEFLNGRVQSTELCAGHLAGGTDSCQGDSGGPLVCFEKDKYILQGVTSWGLGCARPNKPGVYVRVSRFVTWIEGVMRNN

Variants of: B1
Experiment: ELISA; rTpiA protein-coated microtiter plate; measured 60 min after substrate addition; n = 9; parent: 1.4; read off a plot

chain 1 K11A was tested. Which response did it give?
Its response is roughly 1.3 A405.

With chain 1 K205A as the variant, how does the response read?
The response was roughly 1.3 A405.

chain 1 K3A was tested. Which response did it give?
Its response is roughly 1.3 A405.

Which response does the source give for chain 1 K60A here?
The response was roughly 1.3 A405.

chain 1 K20A was tested. Which response did it give?
The response was roughly 1.3 A405.

For chain 1 K114A, which response is on record?
Its response is roughly 1.3 A405.

For chain 1 K84A, which response is on record?
The response was roughly 1.2 A405.

Which response does the source give for chain 1 K188A here?
Its response is roughly 1.3 A405.

With chain 1 K111A as the variant, how does the response read?
The response was roughly 1.3 A405.

chain 1 K111A, chain 1 K112A, chain 1 K114A was tested. Which response did it give?
Its response is roughly 0.86 A405.

chain 1 K14A was tested. Which response did it give?
The response was roughly 1.3 A405.

Which response does the source give for chain 1 K55A here?
The response was roughly 1.3 A405.

Which response does the source give for chain 1 K29A here?
Its response is roughly 1.2 A405.

chain 1 K138A was tested. Which response did it give?
The response was roughly 1.3 A405.

For chain 1 K215A, which response is on record?
Its response is roughly 1.4 A405.

Which response does the source give for chain 1 K185A here?
Its response is roughly 1.3 A405.

How did the response turn out when chain 1 K251A was run?
Its response is roughly 0.14 A405.

For chain 1 K176A, which response is on record?
Its response is roughly 1.3 A405.

With chain 1 K112A as the variant, how does the response read?
Its response is roughly 1.2 A405.
